# Test results reported in the nanobody polyreactivity screen of Harvey et al. (2022).
# Experiment: yeast display, Sf9 membrane polyspecificity reagent, FACS + sequencing; frameworks hold sequencing errors
# Procedure, shortened: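 Galactose-induced (36–48 hours) yeast carrying a synthetic nanobody display library were exposed to 10% biotinylated, detergent-solubilized Sf9 membrane reagent at 4 °C for 1 hour. FACS followed streptavidin microbead enrichment, using low and high (top ~1%) gates for expression (anti-HA) and reagent binding (streptavidin). Colony PCR, MiSeq 2 × 250 sequencing and CDR-length filtering followed. Labels for polyreactivity reflect the gate of origin.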
row,Sequence,polyreactivity (PSR sort gate)
1,QVQLVESGGGLVQAGGSLRLSCAASGSTFTGYAMGWYRQAPGKEREFVATITKRGGRTYYADSVKGRFTISRDNAKNTVYLQMNSLKPEDTAVYYCARDQGKLVVPYDYWGQGTQVTVSS,high polyreactivity
2,QVQLVESGGGLVQAGGSLRLSCAASGSTFTGYAMGWYRQAPGKERELVASISYSGGSTYYADSVKGRFTISRDNAKNTVYLQMNSLKPEDTAVYYCNALQQYALSRYYWGQGTQVTVSS,high polyreactivity
3,QVQLVESGGGLVQAGGSLRLSCAASGSTFTGYAMGWYRQAPGKEREMVAAISSDGITKYADSVKGRFTISRDNAKYTVYLQMNSLKQEDTAVYYCYAPRGSRRSYRRTEYYYWGQGTQVTVSS,high polyreactivity
4,QVQLVESGGGLVQAGGSLRLSCAASGSTFTGYAMGWYRQAPGTERELVATINSGVSTYADSVKGRFTISRDNAKNTVYLQMNSLKPEDTAVYYCAADGLYYYQSGWIDAGYYTNGYWGQGTQVTVSS,low polyreactivity
5,QVQLVESGGGLVQAGGSLRLSCAASGSTFTINVMGWYRQAPGKERELVAAINGGGRTNYADSVKGRFTISRDNAKNTVYLQMNSLKPEDTAVYYCATRYSHNSGFDYWGQGTQVTVSS,low polyreactivity
6,QVQLVESGGGLVQAGGSLRLSCAASGSTFTIYAMGWYRQAPGKEREFVAAIDEDDGSTYYADSVKGRFTISRDNAKKTVYLQMNSLKPEDTAVYYCNADDIWAYAFDYWGQGTQVTVSS,low polyreactivity
7,QVQLVESGGGLVQAGGSLRLSCAASGSTFTIYAMGWYRQAPGKERELVAAISSGGGDTDYADSVKGRFTISRDNAKNTVYLQMNSLKPEDTAGYYCNAEGTSPRTGYDYCGQGTQVTVSS,low polyreactivity
8,QVQLVESGGGLVQAGGSLRLSCAASGSTFTIYAMGWYRQAPGKERELVAAISSGGGDTDYADSVKGRFTISRDNAKNTVYLQMNSLKPEDTAVYYCNAEGTSPRTGYDYWGQGTQVTVSS,low polyreactivity
9,QVQLVESGGGLVQAGGSLRLSCAASGSTFTKYAMGWYRQAPGKERELVAAITASGGNTYYADSVKGRFTISRDNAKKTVYLQMNSLKPEDTAVYYCAARQYRYKYDYWGQGTQVTVSS,high polyreactivity
10,QVQLVESGGGLVQAGGSLRLSCAASGSTFTLNAMGWSRQAPGKERELVADITSGGGGTYYADSVKGRFTISRDNAKNTVYLQMNSLKPEDTAVYYCAKTYRPSYNPYISFGFDYWGQGTQVTVSS,low polyreactivity
11,QVQLVESGGGLVQAGGSLRLSCAASGSTFTLNAMGWYRQAPGKERELVAAITSGGRTKYADSVKGRFTISRDNAKNTVYLQMNSLKPEDTAVYYCAATFAGGYGYWGQGTQVTVSS,high polyreactivity
12,QVQLVESGGGLVQAGGSLRLSCAASGSTFTLNAMGWYRQAPGKERELVADISWSSGRTYYADSVKGRFTISRDNAKNTVYLQMNSLKPEDTAVYYCNKDDNSYGLNYWGQGTQVTVSS,low polyreactivity
13,QVQLVESGGGLVQAGGSLRLSCAASGSTFTLYAMGWSRQAPGKERELVAAISRSGGRTYYADSVKGRFTISRDNAKNTVYLQMNSLKPEDTAVYYCNAPYKQDYDYWGQGTQVTVSS,high polyreactivity
14,QVQLVESGGGLVQAGGSLRLSCAASGSTFTLYAMGWYRQAPGNERELVASITASDGSTSYADSVKGRFTISRDNAKNTVYLQMNSLKPEDTAVYYCAARYRVRGISYYYWGQGTQVTVSS,low polyreactivity
15,QVQLVESGGGLVQAGGSLRLSCAASGSTFTNYAMGRYRQSAGKERELLAAINSGGSTHYADSVKGRFTISRDNANNTVYLQMYSLKPEDTAVYYCDADPSALVYYWRWLGYDYWGQGTQVTVSS,high polyreactivity
16,QVQLVESGGGLVQAGGSLRLSCAASGSTFTNYAMGWYRQAPGKERELLARITYNVGRTYYADSVKGRFTISRDNAKNTVYLQMNSLKPEDTAVYYCAAGVGWRYRVRWYYSLGDYWGQGTQVTVSS,high polyreactivity
17,QVQLVESGGGLVQAGGSLRLSCAASGSTFTNYAMGWYRQAPGKERELVAAITSVGSTYYADSVKGRFTISRDNAKNTVYLQMNSLKPEDTAVYYCNVVYRDQYNYWGQGTQVTVSS,low polyreactivity
